B1: FokI protein: FokI protein delivered (transfected) to the cells (protein, UniProt P14870 2-579, looked up)
Type II restriction enzyme …: VSKIRTFGWVQNPGKFENLKRVVQVFDRNSKVHNEVKNIKIPTLVKESKIQKELVAIMNQHDLIYTYKELVGTGTSIRSEAPCDAIIQATIADQGNKKGYIDNWSSDGFLRWAHALGFIEYINKSDSFVITDVGLAYSKSADGSAIEKEILIEAISSYPPAIRILTLLEDGQHLTKFDLGKNLGFSGESGFTSLPEGILLDTLANAMPKDKGEIRNNWEGSSDKYARMIGGWLDKLGLVKQGKKEFIIPTLGKPDNKEFISHAFKITGEGLKVLRRAKGSTKFTRVPKRVYWEMLATNLTDKEYVRTRRALILEILIKAGSLKIEQIQDNLKKLGFDEVIETIENDIKGLINTGIFIEIKGRFYQLKDHILQFVIPNRGVTKQLVKSELEEKKSELRHKLKYVPHEYIELIEIARNSTQDRILEMKVMEFFMKVYGYRGKHLGGSRKPDGAIYTVGSPIDYGVIVDTKAYSGGYNLPIGQADEMQRYVEENQTRNKHINPNEWWKVYPSSVTEFKFLFVSGHFKGNYKAQLTRLNHITNCNGAVLSVEELLIGGEMIKAGTLTLEEVRRKFNNGEINF
B2: HTH-FokI: HTH from Gin (a serine recombinase), a linker and FokI catalytic domain, SEQ ID NO: 6 (protein)
chain: MGRPPRLTKAEWEQAGRLLAQGIPRKQVALIYDVALSTLYKKHPAKRAHIENDDRINGTKQLVKSELEEKKSELRHKLKYVPHEYIELIEIARNPTQDRILEMKVMEFFMKVYGYRGEHLGGSRKPDGAIYTVGSPIDYGVIVDTKAYSGGYNLPIGQADEMQRYVEENQTRNKHINPNEWWKVYPSSVTEFKFLFVSGHFKGNYKAQLTRLNHITNCNGAVLSVEELLIGGEMIKAGTLTLEEVRRKFNNGEINF
B3: wild-type FokI: full-length FokI enzyme (SEQ ID NO: 12) expressed from a cotransfected codon optimized plasmid (protein)
chain: MFLSMVSKIRTFGWVQNPGKFENLKRVVQVFDRNSKVHNEVKNIKIPTLVKESKIQKELVAIMNQHDLIYTYKELVGTGTSIRSEAPCDAIIQATIADQGNKKGYIDNWSSDGFLRWAHALGFIEYINKSDSFVITDVGLAYSKSADGSAIEKEILIEAISSYPPAIRILTLLEDGQHLTKFDLGKNLGFSGESGFTSLPEGILLDTLANAMPKDKGEIRNNWEGSSDKYARMIGGWLDKLGLVKQGKKEFIIPTLGKPDNKEFISHAFKITGEGLKVLRRAKGSTKFTRVPKRVYWEMLATNLTDKEYVRTRRALILEILIKAGSLKIEQIQDNLKKLGFDEVIETIENDIKGLINTGIFIEIKGRFYQLKDHILQFVIPNRGVGTKQLVKSELEEKKSELRHKLKYVPHEYIELIEIARNPTQDRILEMKVMEFFMKVYGYRGEHLGGSRKPDGAIYTVGSPIDYGVIVDTKAYSGGYNLPIGQADEMQRYVEENQTRNKHINPNEWWKVYPSSVTEFKFLFVSGHFKGNYKAQLTRLNHITNCNGAVLSVEELLIGGEMIKAGTLTLEEVRRKFNNGEINF
B4: NLS-HTH-FokI: HTH-FokI fusion which further has a heterologous NLS at its N-terminus (protein)
chain: MPKKKRKVGRPPRLTKAEWEQAGRLLAQGIPRKQVALIYDVALSTLYKKHPAKRAHIENDDRINGTKQLVKSELEEKKSELRHKLKYVPHEYIELIEIARNPTQDRILEMKVMEFFMKVYGYRGEHLGGSRKPDGAIYTVGSPIDYGVIVDTKAYSGGYNLPIGQADEMQRYVEENQTRNKHINPNEWWKVYPSSVTEFKFLFVSGHFKGNYKAQLTRLNHITNCNGAVLSVEELLIGGEMIKAGTLTLEEVRRKFNNGEINF
modifications: modified enzyme from SV40, Gin and FokI
notes: HTH-FokI fusion which further has a heterologous NLS at its N-terminus
B5: untethered FokI: FokI catalytic domain alone, 198 amino acids (SEQ ID NO: 14), un-tethered to DNA (protein)
chain: MKQLVKSELEEKKSELRHKLKYVPHEYIELIEIARNPTQDRILEMKVMEFFMKVYGYRGEHLGGSRKPDGAIYTVGSPIDYGVIVDTKAYSGGYNLPIGQADEMQRYVEENQTRNKHINPNEWWKVYPSSVTEFKFLFVSGHFKGNYKAQLTRLNHITNCNGAVLSVEELLIGGEMIKAGTLTLEEVRRKFNNGEINF

System: pCMV.Luciferase reporter gene expression in HEK293 cells
Experiment: Ablation of luciferase reporter by FokI ablators co-transfected into HEK293 cells (Dual Luciferase assay)
Format: cell-based, human
Settings: for ablation of Luc reporter with increasing concentration of ablator expression plasmid: 6.25, 12.5, 25, 50 and 100 ng expression plasmid cotransfected with 50 ng pCMV.Luciferase; for expression of the luciferase reporter gene: FIG. 18A: 50 ng pCMV.Luciferase + 200 ng pCMV.FokI, or + transfected FokI protein
Method: Open reading frames encoding for various endonucleases were codon optimized and de novo synthesized by GeneArt. Ablator expression and target plasmids were produced using standard molecular biological cloning techniques. Transfections were performed in HEK293 cells using Lipofectamine™ 2000 transfection reagent (Life Technologies). All transfections were performed using optimal transfection conditions as defined in transfection reagent protocol. Briefly, 200-250 ng plasmid DNA (excluding transfection control plasmid) was complexed with Lipofectamine™ 2000 transfection reagent and added to cells in 96 well plates. DNA quantities were consistent across all conditions by supplementation with an unrelated plasmid containing the same promoter as test plasmids. Transfection complexes were incubated with cells for 4-6 hours as transfection reagent protocol before the addition of FBS supplemented media. Transfected cells were incubated at 37° C. for 24-72 hours. Following incubation, cells were assayed for reporter gene expression using Promega Dual Luciferase detection kit according to the manufacturer's instructions on a BioTek Clarity platereader and renilla luciferase was used to control for transfection efficiency. All samples were performed in quadruplicate and standard errors of the mean were calculated.
The amino acid sequence of the FokI enzyme is provided in SEQ ID NO: 12, wherein amino acids 1 to 387 are the DNA binding domain and amino acids 387 to 584 are the catalytic domain. The codon optimized FokI sequence is provided in SEQ ID NO:1.
In a dose-dependent experiment, the FokI expression vector contained the FokI catalytic domain fused to a zinc finger DNA binding domain (ZFHD). This construct, which is 963 bp, is provided in SEQ ID NO: 21 and is composed of base pairs 1 to 366 bp ZFHD, 367 to 372 bp linker, and 373 to 963 bp FokI catalytic domain. The resulting expression product comprises amino acids 1 to 122 (ZFHD), amino acids 123-124 are a linker and amino acids 125 to 321 are from the FokI catalytic domain. […] No ablation sites were required to be engineered into the transcription unit containing the transgene in this illustration, as luciferase contains multiple native FokI sites.
The plasmid contructs in this example contains either the FokI catalytic domain (198 amino acids (SEQ ID NO: 14), corresponding to amino acids 387 to 584 of the full-length protein) (untethered FokI) or a ZFHD-Fokl catalytic domain of 963 bp as described in Part A above (tethered FokI). Even at the highest concentration, the catalytic domain of FokI which is un-tethered to DNA does have no effect on expression of Luc reporter gene (FIG. 19A).
The HTH-FokI Catalytic domain (SEQ ID NO:5), is composed of 1-171 bp HTH from Gin (a serine recombinase), a linker (bp 172-177), and a FokI catalytic domain (178-768 bp) derived from codon-optimized FokI. The resulting chimeric enzyme (SEQ ID NO: 6) contains aa 1-57 of HTH from Gin, a linker (aa 58-59), and a FokI catalytic domain (amino acids 60-256).

| Molecule | ablation of Luc reporter with increasing concentration of ablator expression plasmid | expression of the luciferase reporter gene | other results |
| --- | --- | --- | --- |
| ZFHD-FokI: FokI catalytic domain fused to a zinc finger homeodomain DNA binding domain (ZFHD), 963 bp, SEQ ID NO: 21 | dose dependent ablation | – | ablation of Luc reporter with increasing concentration of ablator expression plasmid (listed as ZF-HD-FokI): effectively ablated |
| B1 | – | partial ablation | – |
| B2 | effectively ablated | – | – |
| B3 | – | effective ablated | – |
| B4 | – | – | activity of HTH-FokI after adding heterologous NLS at the N-terminus (6.25-100 ng expression plasmid with 50 ng pCMV.Luciferase, separate experiment): further improved |
| B5 | no effect | – | – |

— patent US9315825B2, “Pharmacologically induced transgene ablation system” (The Trustees of the University of Pennsylvania, priority 2010, dated 2016)
